In the experiment the target is SARS-CoV-2 Spike S1 (Omicron), His-tagged (SARS-CoV-2 Omicron B.1.1.529 BA.1, strain). Kind of experiment: SPR. For orientation: In SPR one partner is held on a chip, and binding of the other changes the refractive index at the surface.

B1: LY-CoV1404 (bebtelovimab) reference clone neutralizing antibody (antibody, V domains shown)
VH: QITLKESGPTLVKPTQTLTLTCTFSGFSLSISGVGVGWLRQPPGKALEWLALIYWDDDKRYSPSLKSRLTISKDTSKNQVVLKMTNIDPVDTATYYCAHHSISTIFDHWGQGTLVTVSS
VL: QSALTQPASVSGSPGQSITISCTATSSDVGDYNYVSWYQQHPGKAPKLMIFEVSDRPSGISNRFSGSKSGNTASLTISGLQAEDEADYYCSSYTTSSAVFGGGTKLTVL
Consider B1, for which the affinity, expressed as Kd, was 0.0855 µM; the dissociation rate constant (koff) (as a rule, the rate constant with which the complex falls apart) was 0.00677 s⁻¹; the kon (usually the rate constant with which the complex forms) worked out at 79200 M⁻¹ s⁻¹.

B2: S309 (sotrovimab) reference clone neutralizing antibody (antibody, V domains shown)
VH: not shown
VL: EIVLTQSPGTLSLSPGERATLSCRASQTVSSTSLAWYQQKPGQAPRLLIYGASSRATGIPDRFSGSGSGTDFTLTISRLEPEDFAVYYCQQHDTSLTFGGGTKVEIK
As for B2, binding was put at a Kd of 0.0245 µM, the koff was determined as 0.000395 s⁻¹ and the kon was found to be 16200 M⁻¹ s⁻¹.
